Test results as given in patent US20200317817A1 (XOMA US, published 2020).

T1: human PTH1R overexpressed on CHO cells (human, UniProt Q03431 27-593)
T1 sequence (looked up): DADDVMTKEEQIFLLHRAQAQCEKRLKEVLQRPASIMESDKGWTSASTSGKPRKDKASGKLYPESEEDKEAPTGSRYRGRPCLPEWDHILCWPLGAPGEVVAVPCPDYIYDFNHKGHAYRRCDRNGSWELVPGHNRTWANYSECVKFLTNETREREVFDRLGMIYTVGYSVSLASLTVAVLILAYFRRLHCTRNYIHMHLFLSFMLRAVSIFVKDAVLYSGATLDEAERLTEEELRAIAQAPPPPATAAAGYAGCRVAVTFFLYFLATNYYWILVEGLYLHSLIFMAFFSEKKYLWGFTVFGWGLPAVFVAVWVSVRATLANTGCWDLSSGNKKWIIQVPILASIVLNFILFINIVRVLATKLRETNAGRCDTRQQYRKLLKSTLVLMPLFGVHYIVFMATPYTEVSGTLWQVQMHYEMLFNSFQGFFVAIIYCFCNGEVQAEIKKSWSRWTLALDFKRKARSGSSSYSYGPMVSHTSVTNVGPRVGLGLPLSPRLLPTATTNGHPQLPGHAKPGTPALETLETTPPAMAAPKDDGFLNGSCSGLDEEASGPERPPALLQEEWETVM

T2: mouse PTH1R overexpressed on CHO cells (mouse, UniProt P41593 27-591)
T2 sequence (looked up): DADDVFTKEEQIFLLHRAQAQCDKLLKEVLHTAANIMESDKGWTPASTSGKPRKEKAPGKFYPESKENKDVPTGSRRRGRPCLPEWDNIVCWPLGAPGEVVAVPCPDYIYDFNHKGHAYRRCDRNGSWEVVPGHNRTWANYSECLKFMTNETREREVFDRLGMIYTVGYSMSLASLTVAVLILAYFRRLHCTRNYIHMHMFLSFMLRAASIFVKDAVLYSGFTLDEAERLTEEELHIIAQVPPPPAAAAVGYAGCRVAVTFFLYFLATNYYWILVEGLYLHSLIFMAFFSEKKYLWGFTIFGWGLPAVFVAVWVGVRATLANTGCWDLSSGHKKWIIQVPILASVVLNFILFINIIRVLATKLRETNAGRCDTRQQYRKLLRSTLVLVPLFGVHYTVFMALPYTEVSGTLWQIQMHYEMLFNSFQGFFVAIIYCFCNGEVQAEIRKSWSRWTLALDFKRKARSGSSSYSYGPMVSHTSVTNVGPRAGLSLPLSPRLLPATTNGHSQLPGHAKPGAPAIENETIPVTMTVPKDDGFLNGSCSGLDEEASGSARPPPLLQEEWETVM

T3: rat PTH1R on UMR106 cells (rat, UniProt P25961 27-591)
T3 sequence (looked up): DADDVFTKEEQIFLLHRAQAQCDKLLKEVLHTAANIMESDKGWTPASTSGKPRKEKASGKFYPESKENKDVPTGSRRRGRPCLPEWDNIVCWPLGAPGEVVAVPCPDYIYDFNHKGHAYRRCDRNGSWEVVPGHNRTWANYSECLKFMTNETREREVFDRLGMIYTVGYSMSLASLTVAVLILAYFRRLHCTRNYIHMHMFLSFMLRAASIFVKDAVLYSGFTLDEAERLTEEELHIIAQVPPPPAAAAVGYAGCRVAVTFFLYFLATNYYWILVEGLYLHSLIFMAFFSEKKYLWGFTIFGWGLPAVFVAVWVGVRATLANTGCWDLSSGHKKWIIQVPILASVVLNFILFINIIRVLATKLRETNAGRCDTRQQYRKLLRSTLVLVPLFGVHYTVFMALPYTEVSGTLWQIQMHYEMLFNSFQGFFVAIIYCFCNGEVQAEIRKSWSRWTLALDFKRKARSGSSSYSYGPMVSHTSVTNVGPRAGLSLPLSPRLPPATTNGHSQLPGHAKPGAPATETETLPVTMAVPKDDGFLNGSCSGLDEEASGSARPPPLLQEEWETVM

T4: human PTH1R on Saos-2 cells (endogenous) (human, UniProt Q03431 27-593)
T4 sequence (looked up): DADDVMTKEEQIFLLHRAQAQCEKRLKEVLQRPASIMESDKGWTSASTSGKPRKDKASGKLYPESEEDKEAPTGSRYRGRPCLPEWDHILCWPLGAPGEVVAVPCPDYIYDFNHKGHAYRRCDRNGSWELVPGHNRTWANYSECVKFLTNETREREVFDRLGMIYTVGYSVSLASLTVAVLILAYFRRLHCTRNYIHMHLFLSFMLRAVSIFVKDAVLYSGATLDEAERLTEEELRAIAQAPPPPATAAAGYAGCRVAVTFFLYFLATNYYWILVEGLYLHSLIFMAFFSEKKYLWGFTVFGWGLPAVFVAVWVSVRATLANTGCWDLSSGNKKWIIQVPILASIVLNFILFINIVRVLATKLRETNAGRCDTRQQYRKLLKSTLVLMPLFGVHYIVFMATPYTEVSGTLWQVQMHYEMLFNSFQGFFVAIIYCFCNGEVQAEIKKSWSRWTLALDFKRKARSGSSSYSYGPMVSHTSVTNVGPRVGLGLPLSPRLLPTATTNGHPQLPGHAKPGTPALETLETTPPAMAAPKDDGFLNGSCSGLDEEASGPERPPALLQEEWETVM

T5: human PTH1R overexpressed on Saos-2 cells (human, UniProt Q03431 27-593)
T5 construct: whole, on cells; also called Saos-2 human PTH1R cells
T5 sequence (looked up): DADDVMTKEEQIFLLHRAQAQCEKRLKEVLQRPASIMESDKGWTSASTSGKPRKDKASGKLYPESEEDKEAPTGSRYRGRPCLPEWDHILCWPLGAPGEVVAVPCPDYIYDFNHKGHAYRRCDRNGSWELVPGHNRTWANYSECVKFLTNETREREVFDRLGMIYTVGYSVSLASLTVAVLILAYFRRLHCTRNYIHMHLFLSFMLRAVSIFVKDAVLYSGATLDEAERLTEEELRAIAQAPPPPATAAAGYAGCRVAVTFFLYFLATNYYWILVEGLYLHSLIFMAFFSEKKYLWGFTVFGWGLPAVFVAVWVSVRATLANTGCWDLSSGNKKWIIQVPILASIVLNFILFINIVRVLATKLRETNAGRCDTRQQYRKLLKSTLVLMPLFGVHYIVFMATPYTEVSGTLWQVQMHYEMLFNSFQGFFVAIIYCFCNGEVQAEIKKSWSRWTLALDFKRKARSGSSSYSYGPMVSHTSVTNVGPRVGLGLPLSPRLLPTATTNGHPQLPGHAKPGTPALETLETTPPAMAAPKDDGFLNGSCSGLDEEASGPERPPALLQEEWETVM


Legend:
[1] = target: T1, human PTH1R overexpressed on CHO cells; test: cell-based or functional assay
[2] = target: T2, mouse PTH1R overexpressed on CHO cells; test: cell-based or functional assay
[3] = target: T3, rat PTH1R on UMR106 cells; test: cell-based or functional assay
[4] = target: T4, human PTH1R on Saos-2 cells (endogenous); test: cell-based or functional assay
[5] = target: T1, human PTH1R overexpressed on CHO cells; test: flow cytometry on CHO cells, 24 hr at 4 C
Experimental: To characterize antibody binding to PTH1R, cells were labeled with either CellTrace™ CFSE or CellTrace™ Violet. Unlabeled CHOK1 parent, CHO human PTH1R labeled with CellTrace™CFSE, and CHO mouse PTH1R labeled with CellTrace™Violet were pooled together and stained with increasing concentrations of antibody. Antibodies were incubated for 24 hr at 4° C. followed by two washes with FACS Buffer (0.5% BSA, 0.1% NaN3 in DPBS). Cells were then incubated with Allophycocyanin (APC) AffiniPure F(ab′)₂ Fragment Goat Anti-Human IgG (H+L) (Jackson ImmunoResearch, West Grove, Pa.) for 20 minutes at 4° C. Followed by two washes, cells were resuspended in FACS Buffer. Samples were acquired using BD Cytometer (BD Biosciences, San Jose, Calif.) and data were analyzed using FlowJo (FlowJo, LLC, Ashland, Oreg.) and Prism (GraphPad Software, La Jolla, Calif.).

[6] = target: T4, human PTH1R on Saos-2 cells (endogenous); test: cell-based or functional assay; remark: listed apart in the source
[7] = target: T3, rat PTH1R on UMR106 cells; test: cell-based or functional assay; remark: listed apart in the source
[8] = target: T4, human PTH1R on Saos-2 cells (endogenous); test: cell-based or functional assay; remark: listed apart in the source
[9] = target: T5, human PTH1R overexpressed on Saos-2 …; test: flow cytometry on Saos-2 cells overexpressing human PTH1R, antibody alone, PE anti-human IgG
[10] = target: T5, human PTH1R overexpressed on Saos-2 …; test: flow cytometry on Saos-2 cells overexpressing human PTH1R, in the presence of 3 uM PTHrP, PE anti-human IgG
Source text: Antibody binding was detected with R-Phycoerythrin anti-human IgG.

Binder | EC50 of PTH(1-34), cAMP assay, with 267 nM IgG [1] [nM] | EC50 of PTH(1-34), cAMP assay, with 267 nM IgG [2] [nM] | EC50 of PTH(1-34), cAMP assay, with 267 nM IgG [3] [nM] | EC50 of PTH(1-34), cAMP assay, with 267 nM IgG [4] [nM] | EC50 of PTHrP(1-34), cAMP assay, with 267 nM IgG [4] [nM] | EC50 [5] [nM] | EC50 of PTHrP(1-34), cAMP assay, with 267 nM IgG [3] [nM] | further results
XPA.85.341 (antibody, V domains shown, Light-chain-shuffled variant of XPA.85.017) VH: EVQLVETGGGVVRPGGSLRLSCAASGFTFSSSAMSWVRQTPGKELQWVSAITPGGEGTYYADVVKGRFTISRDNSKDTLYLQMDSLRAEDTAVYYCARDLYGSYGDAFDIWGQGTLVTVSS VL: SYELTQPSSVSVSPGQTASITCSGDKLGEKYASWYQQKPGQSPVLVMFEDTKRPSGIPERFSGSNSGNTATLTISGTQAEDEADYYCQAWDSSWVFGGGTQLTVL | 0.404 | 2.15 | 13.7 | 38.1 | 63 | 0.202 |  | 
XPA.85.287 (antibody, V domains shown, also called Ab287) VH: EVQLVETGGGVVRPGGSLRLSCAASGFTFSSSAMSWVRQTPGKELQWVSAITPGGEGTYYADVVKGRFTISRDNSKDTLYLQMDSLRAEDTAVYYCARDLYGSYGDAFDIWGQGTLVTVSS VL: SYVLTQPPSVSVAPGQTARITCSGDKLGDRYVSWYQQKPGQSPVLVMFEDTGRPAGIPERFSGSNSGNTATLTISGTQAEDEADYYCQAWGTSWVFGGGTQLTVL | 0.908 | 13.6 | 66.7 | 78.6 | 62.2 | 0.044 | 11.6 | fold shift of the PTH (1-34) dose response, M-CSF secretion by Saos-2 cells, 40 µg/mL antibody [6]: ~7 fold; EC50 of PTHrP(1-34), cAMP assay, with 267 nM IgG [1]: 52.7 nM; fold-shift in PTH(1-34) EC50 vs vehicle only, cAMP assay [1]: 29 fold; fold-shift in PTHrP(1-34) EC50 vs vehicle only, cAMP assay [1]: > 100 fold; EC50 of PTHrP(1-34), cAMP assay, with 267 nM IgG [2]: 5.77 nM; fold-shift in PTH(1-34) EC50 vs vehicle only, cAMP assay [2]: > 100 fold; fold-shift in PTHrP(1-34) EC50 vs vehicle only, cAMP assay [2]: > 100 fold; fold-shift in PTH(1-34) EC50 vs vehicle only, cAMP assay [3]: > 100 fold; fold-shift in PTHrP(1-34) EC50 vs vehicle only, cAMP assay [3]: 35 fold; fold-shift in PTH(1-34) EC50 vs vehicle only, cAMP assay [4]: > 100 fold; fold-shift in PTHrP(1-34) EC50 vs vehicle only, cAMP assay [4]: 89 fold
XPA.85.339 (antibody, V domains shown, Light-chain-shuffled variant of XPA.85.017) VH: EVQLVETGGGVVRPGGSLRLSCAASGFTFSSSAMSWVRQTPGKELQWVSAITPGGEGTYYADVVKGRFTISRDNSKDTLYLQMDSLRAEDTAVYYCARDLYGSYGDAFDIWGQGTLVTVSS VL: SYELTQPPSVSVAPGQTATITCSGDRLGDKFISWYQQKPGQSPLLVIFEDNERPSRIPERFSGSNSGNSATLTISGTQAVDEADYYCQAWDSSWVFGGGTQLTVL | 0.613 | 1.95 | 7.9 | 24.8 | 31.4 | 0.142 | 3.48 | 
XPA.85.329 (antibody, V domains shown, IgG; also called Ab329; XPA.329) VH: QMQLVQSGAEVKKPGSSVKVSCKASGGTFSSYAISWVRQAPGQGLEWMGGIIPIFGTANYAQKFQGRVTITADESTSTAYMELSSLRSEDTAVYYCARGYVVARLWGQGTLVTVSS VL: DIVMTQTPLSLSVTPGQPASISCKSSQSLLHIDGLTYLYWYLQKPGQPPQLLIYEVSHRFSGVSDKFSGSGSGTDFTLTISRVEAEDVGVYYCMQSLHLPITFGQGTRLEIK |  |  |  |  |  |  |  | EC50 of antibody, neutralization of M-CSF production induced by 12.5 nM PTHrP (1-36) [6]: 4 nM; fold shift of the PTHrP (1-36) dose response, M-CSF secretion by Saos-2 cells, 40 µg/mL antibody [6]: > 200 fold; % inhibition of cAMP accumulation at 1 µM PTH(1-34), 267 nM IgG [7]: 50%; % inhibition of cAMP accumulation at 1 µM PTHrP(1-34), 267 nM IgG [7]: 41%; % inhibition of cAMP accumulation at 1 µM PTH(1-34), 267 nM IgG [8]: 79%; % inhibition of cAMP accumulation at 1 µM PTHrP(1-34), 267 nM IgG [8]: 90%; EC50 [9]: 7.61 nM; EC50 [10]: 656 nM
